Measured values from patent US20210063414A1, “METHODS FOR PREVENTING AND/OR TREATING BONE LOSS CONDITIONS BY MODULATING IRISIN” (Dana-Farber Cancer Institute, Inc., priority 2018, published 2021).

Experiments:
[1] = test system: primary inguinal fat cells; experiment: Ucp1 mRNA in primary inguinal fat cells; type: cell-based, mice; conditions: irisin during 6 days differentiation
Method: FIG. 18A-FIG. 18B show mRNA and protein levels of indicated genes. 1 mg/kg irisin was injected to 8-week old mice every other day for 6 days. mRNA levels of indicated genes in inguinal fat were analyzed by qRT-PCR. Cyclophilin was used for housekeeping gene (FIG. 18A). Inguinal fats were also lysed to detect the indicated protein level using immunoblot analysis (FIG. 18B). FIGS. 18C and 18D show mRNA and protein levels of indicated genes. Mice were treated and analyzed as (A-B) with addition of coinjection of […] control RGD peptide or cyclo RGDyK (cRGDyK). mRNA levels of indicated genes in inguinal fat were analyzed by qRT-PCR. Cyclophilin was used for house-keeping gene (FIG. 18C). Inguinal fats were also lysed to detect the indicated protein level using immunoblot analysis (FIG. 18D). […] Ucp1 mRNA level was analyzed by qRT-PCR. […]
Inguinal fat tissue from 6 weeks old mice was dissected and washed with PBS, minced and digested for 1 hour at 37° C. in PBS containing 10 mM CaCl2, 2.4 U/ml dispase II (Roche) and 10 mg/ml collagenase D (Roche). […] After that, cells were maintained in 1 μM rosiglitazone in the presence of 0, 0.5, 5 or 50 ng/ml recombinant […] his-tag irisin protein for 4 days with medium change every other day. mRNA levels were analyzed as described in gene expression analysis. […]

[2] = target: T1, integrin α5/β1 (Homo sapiens, UniProt P05556+P08648); experiment: FAK phosphorylation in HEK293T cells with forced expression of integrin α5/β1; type: cell-based
T1 construct: expressed in transfected cells; host or cells: HEK293T
Method: (§1) 100 nM irisin was incubated with 5 nM indicated his-tag integrins followed by immunoprecipitation using Ni-NTA agaroses. Precipitated integrins and co-precipitated irisin were analyzed by immunoblot analysis. […] HEK293T cells were seeded and incubated until 50% cell density. The cells were transfected with 0.1 μg plasmids of indicated integrins. After 48 hours, the cells were re-split to indicated dose of vitronectin-coated plates. Cells were incubated with culture medium for 3 hours. Cells were lysed to detect the indicated protein level using immunoblot analysis. FIG. 15C and FIG. 15D show the immunoblot data. Cells were treated and analyzed as FIG. 14B except using plasmids encoding integrin α5/β1 or integrin α11/β1 (FIG. 15C) integrin αV/β1(FIG. 15D).
(§2) HEK293T cells were set up for experiments at 1×10^5 cells per well in 6 well plate. On day 2, cells were transiently transfected with the indicated plasmids with FuGENE® 6 reagent (Roche Applied Science) according to the manufacturer's protocol. […]
(§3) Cells were harvested in RIPA buffer containing protease-inhibitor cocktail and phosphataseinhibitor cocktail. […] Protein levels were analyzed via western blot using indicated antibody. […] Protein levels were analyzed using western blot against indicated antibody.

[3] = target: T2, integrin α11/β1 (Homo sapiens, UniProt P05556+Q9UKX5); experiment: FAK phosphorylation in HEK293T cells with forced expression of integrin α11/β1; type: cell-based
T2 construct: expressed in transfected cells; host or cells: HEK293T
Method: as §1, §2, §3

T2 sequence (Q9UKX5 23-1188): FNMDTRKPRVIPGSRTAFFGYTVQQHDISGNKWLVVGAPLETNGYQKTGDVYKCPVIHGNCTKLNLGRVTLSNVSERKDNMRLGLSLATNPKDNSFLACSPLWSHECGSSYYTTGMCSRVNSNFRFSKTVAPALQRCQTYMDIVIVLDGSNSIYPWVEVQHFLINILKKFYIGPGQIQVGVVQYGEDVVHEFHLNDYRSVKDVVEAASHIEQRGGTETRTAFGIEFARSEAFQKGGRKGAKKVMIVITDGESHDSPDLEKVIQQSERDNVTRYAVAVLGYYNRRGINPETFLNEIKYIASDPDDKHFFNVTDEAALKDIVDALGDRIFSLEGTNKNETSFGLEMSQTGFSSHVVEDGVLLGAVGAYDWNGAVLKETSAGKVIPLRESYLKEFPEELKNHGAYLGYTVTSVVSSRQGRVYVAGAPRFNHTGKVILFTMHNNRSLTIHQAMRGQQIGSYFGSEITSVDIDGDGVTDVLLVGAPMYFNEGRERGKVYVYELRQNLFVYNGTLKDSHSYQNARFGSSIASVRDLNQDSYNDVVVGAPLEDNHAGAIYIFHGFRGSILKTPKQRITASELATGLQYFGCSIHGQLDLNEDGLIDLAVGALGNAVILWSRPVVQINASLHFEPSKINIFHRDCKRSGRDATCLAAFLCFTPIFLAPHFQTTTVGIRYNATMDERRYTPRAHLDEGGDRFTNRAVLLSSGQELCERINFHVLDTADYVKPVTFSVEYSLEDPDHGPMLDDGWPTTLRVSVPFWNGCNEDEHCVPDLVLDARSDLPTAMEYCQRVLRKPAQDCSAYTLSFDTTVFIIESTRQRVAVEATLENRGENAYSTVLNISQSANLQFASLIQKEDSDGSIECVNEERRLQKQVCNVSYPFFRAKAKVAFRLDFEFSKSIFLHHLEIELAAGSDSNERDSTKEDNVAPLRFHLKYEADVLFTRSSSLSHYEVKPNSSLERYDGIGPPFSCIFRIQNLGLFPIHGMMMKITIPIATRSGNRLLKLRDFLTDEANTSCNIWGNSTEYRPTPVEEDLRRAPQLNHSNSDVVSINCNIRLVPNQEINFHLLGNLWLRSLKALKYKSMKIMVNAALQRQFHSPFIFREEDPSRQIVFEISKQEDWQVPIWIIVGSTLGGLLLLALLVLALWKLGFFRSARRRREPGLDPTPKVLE
T2 sequence (P05556 21-798): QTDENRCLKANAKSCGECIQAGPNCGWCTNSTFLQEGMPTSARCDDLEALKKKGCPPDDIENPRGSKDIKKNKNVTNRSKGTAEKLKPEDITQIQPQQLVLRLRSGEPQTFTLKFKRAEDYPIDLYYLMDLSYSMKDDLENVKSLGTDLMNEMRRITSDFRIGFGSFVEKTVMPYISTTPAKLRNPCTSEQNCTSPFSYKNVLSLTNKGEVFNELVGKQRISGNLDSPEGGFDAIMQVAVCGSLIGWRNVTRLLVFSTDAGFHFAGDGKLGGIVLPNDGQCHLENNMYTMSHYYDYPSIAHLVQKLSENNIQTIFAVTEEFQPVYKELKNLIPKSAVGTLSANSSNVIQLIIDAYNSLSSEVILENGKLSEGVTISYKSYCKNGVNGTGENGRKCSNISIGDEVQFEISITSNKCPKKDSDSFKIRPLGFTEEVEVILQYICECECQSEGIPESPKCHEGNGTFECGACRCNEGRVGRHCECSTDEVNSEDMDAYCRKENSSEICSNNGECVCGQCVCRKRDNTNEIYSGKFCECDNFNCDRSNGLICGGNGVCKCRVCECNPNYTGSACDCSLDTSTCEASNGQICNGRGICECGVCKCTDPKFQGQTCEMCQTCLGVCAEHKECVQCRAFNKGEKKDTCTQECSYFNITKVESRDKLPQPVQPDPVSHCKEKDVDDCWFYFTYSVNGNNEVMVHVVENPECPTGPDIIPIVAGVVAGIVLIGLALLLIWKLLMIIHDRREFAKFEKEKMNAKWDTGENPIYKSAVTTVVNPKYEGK
T1 sequence (P08648 42-894 limits assumed): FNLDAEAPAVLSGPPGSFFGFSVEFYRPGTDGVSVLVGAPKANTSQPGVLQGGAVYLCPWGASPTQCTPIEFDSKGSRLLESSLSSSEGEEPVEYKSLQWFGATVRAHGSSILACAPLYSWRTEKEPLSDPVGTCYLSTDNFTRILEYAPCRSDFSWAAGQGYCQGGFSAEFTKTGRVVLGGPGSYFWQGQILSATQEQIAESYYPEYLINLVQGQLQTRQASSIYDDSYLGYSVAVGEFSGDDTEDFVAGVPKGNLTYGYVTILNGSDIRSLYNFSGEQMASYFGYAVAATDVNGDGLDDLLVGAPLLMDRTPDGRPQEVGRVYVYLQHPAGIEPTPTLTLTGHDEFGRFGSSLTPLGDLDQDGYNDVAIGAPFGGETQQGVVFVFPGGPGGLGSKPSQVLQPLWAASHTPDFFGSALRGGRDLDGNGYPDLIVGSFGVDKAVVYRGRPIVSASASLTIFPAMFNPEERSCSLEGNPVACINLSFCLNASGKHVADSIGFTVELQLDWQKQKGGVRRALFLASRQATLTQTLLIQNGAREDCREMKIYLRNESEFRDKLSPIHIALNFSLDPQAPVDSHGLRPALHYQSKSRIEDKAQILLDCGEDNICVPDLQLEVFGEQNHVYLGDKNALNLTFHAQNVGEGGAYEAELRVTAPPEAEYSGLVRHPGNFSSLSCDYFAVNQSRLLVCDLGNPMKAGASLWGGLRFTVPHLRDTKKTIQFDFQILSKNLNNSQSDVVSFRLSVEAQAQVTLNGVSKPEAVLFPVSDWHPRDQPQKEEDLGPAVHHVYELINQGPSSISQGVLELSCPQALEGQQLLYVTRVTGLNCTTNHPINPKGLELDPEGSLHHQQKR
T1 sequence (P08648 895-1049 partner limits assumed): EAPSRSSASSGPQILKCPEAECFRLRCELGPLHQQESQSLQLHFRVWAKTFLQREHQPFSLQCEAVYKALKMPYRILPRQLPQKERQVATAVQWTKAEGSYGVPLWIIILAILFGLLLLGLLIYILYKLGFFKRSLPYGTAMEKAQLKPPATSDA
T1 sequence (P05556 21-798): as the sequence (P05556 21-798) above

B1: irisin: secreted cleaved form of FNDC5; recombinant human/mouse irisin with C-terminal his tag produced in HEK293 cells (protein)
chain: DSPSAPVNVTVRHLKANSAVVSWDVLEDEVVIGFAISQQKKDVRMLRFIQEVNTTTRSCALWDLEEDTEYIVHVQAISIQGQSPASEPVLFKTPREAEKMASKNKDEVTMKE
modifications: left off: small tags and cut ends
notes: secreted cleaved form of FNDC5; recombinant human/mouse irisin with C-terminal his tag produced in HEK293 cells
[1]
  gene expression of Ucp1: increased the gene expression of Ucp1
[2]
  phosphorylation of FAK upon irisin treatment: little phosphorylation of FAK above background
[3]
  phosphorylation of FAK upon irisin treatment: little phosphorylation of FAK above background
